Assay results: patent US20260258143A1 (published 2026)

T1: human CD25-extracellular domain (CD25-ECD) (UniProt P01589 22-240)
T1 chain: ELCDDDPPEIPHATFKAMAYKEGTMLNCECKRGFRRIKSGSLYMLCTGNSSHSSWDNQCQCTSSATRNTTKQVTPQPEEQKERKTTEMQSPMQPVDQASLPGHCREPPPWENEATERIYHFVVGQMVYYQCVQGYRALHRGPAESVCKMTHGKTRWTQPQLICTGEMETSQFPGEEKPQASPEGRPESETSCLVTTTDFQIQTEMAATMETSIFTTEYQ


Target: T1, human CD25-extracellular domain …
Test: SPR

Row | Kd | Binder
1 | 11 nM | ODY-N1961Hu1 (antibody, V domains shown) VH: EVQLVESGGGLVQPGGSLRLSCAASGRSFSTLIMAWYRQAPGKQRELVATIERGGTTTYADSVKGRFTASRDNAKNTVYLQMNSLRPEDTAVYYCNALGYWGQGTQVTVSS
2 | 13 nM | ODY-N1955Hu1 (antibody, V domains shown) VH: EVQLVESGGGLVQPGGSLRLSCAASGRSFSTLIMAWYRQAPGKQRELVATIERGGTPTYADSVKGRFTISRDNAKNTVYLQMNSLRPEDTAVYYCNALGYWGQGTQVTVSS
3 | 12 nM | ODY-N1970Hu1 (antibody, V domains shown) VH: EVQLVESGGGLVQPGGSLRLSCAASGRSFSTLIMGWYRQAPGKQRELVATIERGGTTTYADSVKGRFTISRDNAKNTVYLQMNSLRPEDTAVYYCNALLYWGQGTQVTVSS

Target: T1, human CD25-extracellular domain …
Test: SPR
Remark: another data set of the same source

Row | Kd | Binder
4 | 12 nM | ODY-N2016Hu1 (antibody, V domains shown) VH: EVQLLESGGGLVQPGGSLRLSCAASGRTFADFGMGWFRQAPGKEREFVAAISRSGGRTRYADSVKGRFTISRDDAKNTVYLQMNSLRPEDTAVYYCAASYFLLAITISGYDYWGQGTQVTVSS
5 | 13 nM | ODY-N2017Hu1 (antibody, V domains shown) VH: EVQLLESGGGLVQPGGSLRLSCAASGRTFSSYGMGWFRQAPGKEREFVAAISQSGGRTRYADSVKGRFTISRDNAKNTVYLQMNSLRPEDTAVYYCAATNFLIAATISAYDYWGQGTQVTVSS
6 | 17 nM | ODY-N2022Hu1 (antibody, V domains shown) VH: EVQLLESGGGLVQPGGSLRLSCAASGRTFSSYGMGWFRQAPGKEREFVAAISQSGGRTRYADSVKGRFTISRDNAKNTVYLQMNSLRPEDTAVYYCAATKFLIATTISAYDYWGQGTQVTVSS
7 | 19 nM | ODY-N2024Hu1 (antibody, V domains shown) VH: EVQLLESGGGLVQPGGSLRLSCAASGRTFSSYGMGWFRQAPGKEREFVAAISQSGGRTRYADSVKGRFTISRDNVKNTVYLQMNSLRPEDTAVYYCAATNFLIATTISAHDYWGQGTQVTVSS

Target: T1, human CD25-extracellular domain …
Test: SPR
Remark: another data set of the same source

Row | Kd | Binder
8 | 26 nM | ODY-N1978Hu1 (antibody, V domains shown) VH: EVQLVESGGGLVQPGGSLRLSCAASGRSFSTLIMGWYRQAPGKQRELVATIERGGTTTYADSVKGRFTISRDNAKNTVYLQMNSLRPEDTAVYYCNALRDWGQGTQVTVSS
9 | 20 nM | ODY-N1974Hu1 (antibody, V domains shown) VH: EVQLVESGGGLVQPGGSLRLSCAASGRKFSTLIMAWYRQAPGKQRELVATVDRGGTTTYADSVKGRFTISRDNAKNTTYLQMNSLRPEDTAVYYCNALRNWGQGTQVTVSS

Target: T1, human CD25-extracellular domain …
Test: SPR
Remark: another data set of the same source

Row | Kd | Binder
10 | 9.4 nM | ODY-N2010Hu1 (antibody, V domains shown) VH: EVQLLESGGGLVQPGGSLRLSCAASGRTFSSYGMGWFRQAPGKEREFVVAISGSGGRTRYADSVKGRFTISRDNAKNTVYLQMNSLRPEDTAVYYCAASDFLIATSISAYDYWGQGTQVTVSS
11 | 13 nM | ODY-N2005Hu1 (antibody, V domains shown) VH: EVQLLESGGGLVQPGGSLRLSCAASGRTFSSYGMGWFRQAPGKEREFVAAISQSGGRTRYADSVKGRFTISRDNAKNTVYLQMNSLRPEDTAVYYCAATNFLIATTISAYDYWGQGTQVTVSS
12 | 9.4 nM | ODY-N2011Hu1 (antibody, V domains shown) VH: EVQLLESGGGLVQPGGSLRLSCAASGRTFASFGMGWFRQAPGKEREFVAAISQGGGRTRYADSVKGRFTISRDDAKNTVYLQMNSLRPEDTAVYYCAASYFLLATTISGYDYWGQGTQVTVSS
13 | 22 nM | ODY-N2008Hu1 (antibody, V domains shown) VH: EVQLLESGGGLVQPGGSLRLSCAASGRTFASFGMGWFRQAPGKEREFVAAISRGGGRTRYADSVKGRFTISRDDAKNTVYLQMNSLRPEDTAVYYCAASYFLLATTISGYDYWGQGTQVTVSS

Target: T1, human CD25-extracellular domain …
Test: SPR
Remark: another data set of the same source

Row | Kd | Binder
14 | 7.6 nM | ODY-N2003Hu1 (antibody, V domains shown) VH: EVQLVESGGGLVQPGGSLRLSCAASGRKFSTLIMAWYRQAPGKQRELVATIDRDGTTTYADSVKGRFTISRDNAKNTVYLQMNSLRPEDTAVYYCSTLRYWGQGTQVTVSS

target: cCD25; test: SPR

Row | Kd | Binder
15 | 34 nM | 46A3 (VHH) VHH: EVQLLESGGGLAQPGGSLRLSCAASGFTFSNYAMSWARQAPGKGLEWVSGIYSDGSGTYYADSVKGRFTISRDNAKNTVYLQMNSLRPEDTAVYYCAKGRNSGSYYPWDDYWGQGTQVTVSS

Target: T1, human CD25-extracellular domain …
Test: SPR
Remark: another data set of the same source

Row | Kd | Binder
16 | 107 nM | ODY-N1783Hu1 (antibody, V domains shown) VH: EVQLLESGGGLAQPGGSLRLSCAASGFTFSNYAMSWARQAPGKGLEWVSGIYSDGSGTYYADSVKGRFTISRDNAKNTVYLQMNSLRPEDTAVYYCSKGARSGSYYPWDDVWGQGTQVTVSS
17 | 49 nM | ODY-N1769Hu1 (antibody, V domains shown) VH: EVQLLESGGGLAQPGGSLRLSCAASGFTFSNYAMSWVRQAPGKGLEWVSGIYSDGSGTYYADSVKGRFTISRDNAKNTVYLQMNSLRPEDTAVYYCSKGRHSGSYYPWDEYWGQGTQVTVSS
18 | 66 nM | ODY-48C10Hu1 (antibody, V domains shown) VH: EVQLLESGGGLAQPGGSLRLSCAASGFTFSNYAMSWTRQAPGKGLEWVSGIYSDGSGTYYADSVKGRFTISRDNAKNTVYLQMNSLRPEDTAVYYCAKGRNSGSYYPFDDYWGQGTQVTVSS
19 | 102 nM | ODY-48D11Hu1 (antibody, V domains shown) VH: EVQLLESGGGLVQPGGSLRLSCAASGFTFSNYAMSWARQAPGKGLEWVSGIYSDGSGTYYADSVKGRFTISRDNAKNTVYLQMNSLRPEDTAVYYCAKGRNSGSYYPFDDYWGQGTQVTVSS

Target: T1, human CD25-extracellular domain …
Test: SPR
Remark: another data set of the same source

Row | Kd | Binder
20 | 31 nM | ODY-N1998Hu1 (antibody, V domains shown) VH: EVQLVESGGGLVQPGGSLRLSCAASGRRFSTLIMGWYRQAPGKQRELVATIERGGTPTYADSVKGRFTISRDNAKNTVYLQMNSLRPEDTAVYYCKTLRYWGQGTQVTVSS
21 | 13 nM | ODY-N1999Hu1 (antibody, V domains shown) VH: EVQLVESGGGLVQPGGSLRLSCAASGRKFSTLIMGWYRQAPGKQRELVATIERDDTTTYADSVKGRFTISRDNAKNTVYLQMNSLRPEDTAVYYCKTLRYWGQGTQVTVSS
22 | 18 nM | ODY-N2001Hu1 (antibody, V domains shown) VH: EVQLVESGGGLVQPGGSLRLSCAASGRKFSTLIMAWYRQAPGKQRELVATIDRDGTTTYADSVKGRFTISRDNAKNTVYLQMNSLRPEDTAVYYCKTLRYWGQGTQVTVSS
23 | 14 nM | ODY-N2000Hu1 (antibody, V domains shown) VH: EVQLVESGGGLVQPGGSLRLSCAASGRKFSTLIMGWYRQAPGKQRELVATIERDDTTTYADSVKGRFTISRDNAKNTVYLQMNSLRPEDTAVYYCTTLRYWGQGTQVTVSS

Target: T1, human CD25-extracellular domain …
Test: SPR
Remark: another data set of the same source

Row | Kd | Binder
24 | 241 nM | ODY-N1808Hu1 (antibody, V domains shown) VH: EVQLLESGGGLAQPGGSLRLSCAASGFTFSNYAMSWVRQAPGKGLEWVSGIYSDGSGTYYADSVKGRFTISRDNAKNTVYLQMNSLRPEDTAVYYCATGKHSGSYYPWDDYWGQGTQVTVSS
25 | 149 nM | ODY-N1812Hu1 (antibody, V domains shown) VH: EVQLLESGGGLAQPGGSLRLSCAASGFTFSNYAMSWARQAPGKGLEWVSGIYSDSSGTYYADSVKGRFTISRDNAKNTVYLQMNSLRPEDTAVYYCAKGRGSGGYYPFDDYWGQGTQVTVSS
26 | 348 nM | ODY-N1811Hu1 (antibody, V domains shown) VH: EVQLLESGGGLAQPGGSLRLSCAASGFTFSNYAMSWARQAPGKGLEWVSGIYSDSSGTYYADSVKGRFTISRDNAKNTVYLQMNSLRPEDTAVYYCAKGRGSGSYYPLDDYWGQGTQVTVSS
27 | 62 nM | ODY-N1810Hu1 (antibody, V domains shown) VH: EVQLLESGGGLAQPGGSLRLSCAASGFTFSNYAMSWARQAPGKGLEWVSGIYSDSSGTYYADSVKGRFTISRDNAKNTVYLQMNSLRPEDTAVYYCVKGRGSGSYYPFDDYWGQGTQVTVSS

Target: T1, human CD25-extracellular domain …
Test: SPR
Remark: another data set of the same source

Row | Kd | Binder
28 | 10 nM | ODY-N2027Hu1 (antibody, V domains shown) VH: EVQLLESGGGLVQPGGSLRLSCAASGRTFSSYGMGWFRQAPGKEREFVAAISQSGGRTRYADSVKGRFTISRDNAKNTVYLQMNSLRPEDTAVYYCAATNFLIATAISAYDYWGQGTQVTVSS
29 | 14 nM | ODY-N2025Hu1 (antibody, V domains shown) VH: EVQLLESGGGLVQPGGSLRLSCAASGRTFSSYGMGWFRQAPGKEREFVAAISQSGGRTRYADSVKGRFTISRDNAKNTVYLQMNSLRPEDTAVYYCAATNVLIATTISAYDYWGQGTQVTVSS
30 | 11 nM | ODY-N2026Hu1 (antibody, V domains shown) VH: EVQLLESGGGLVQPGGSLRLSCAASGRTFSSYGMGWFRQAPGKEREFVAAISQSGGRTRYADSVKGRFTISRDNAKNTVYLQMNSLRPEDTAVYYCAATNFPIATTISAYDYWGQGTQVTVSS
